Data from article PMC9197883, “Treatment with Polyethylene Glycol–Conjugated Fungal D-Amino Acid Oxidase Reduces Lung Inflammation in a Mouse Model of Chronic Granulomatous Disease” (Inflammation, 2022).

How the values were obtained:
[1] = target: D-amino acid oxidase isolated from Fusarium spp. (Fusarium spp.) (UniProt P24552); experiment: not stated; fDAO in 'the physiological solution used for testing'; how the oligomeric state was found is not told
fDAO / PEG-fDAO = test system: T1, fDAO / PEG-fDAO; experiment: HRP-coupled o-dianisidine assay of H2O2 formation, nonlinear fit; format: biochemical; details: pH 6.5; 25 °C; enzyme form not stated beside the value, most likely PEG-conjugated (PEG-fDAO)
T1 construct: gene DAO; DAO from Fusarium spp. supplied by Ikeda Food Research; tetramer 165 kDa; PEG conjugate (five PEG chains, succinimide-PEG ME-020CS) 206 kDa

stoichiometry N [1]	Molecule	Km (fDAO / PEG-fDAO) [µM]
4	D-amino acid oxidase isolated from Fusarium spp. (from UniProt P24552 23-361) (enzyme)	–
–	N[C@H](Cc1ccccc1)C(=O)O [D-phenylalanine]	220
